Test results reported in IntAct's records for PubMed 19008859.

B1: Myocardin-related transcription factor A (Mus musculus), Q8K4J6 (parent)
chain: MTLLEPEMLMMAVQSVLQLKLQQRRTREELVSQGIMPPLKSPAAFHEQRRSLERARTEDYLKRKIRSRPERAELVRMHILEETSAEPSLQAKQLKLKRARLADDLNEKIAQRPGPMELVEKNILPVESSLKEAIIVGQVNYPKVADSSSFDEDSSDALSPEQPASHESQGSVPSPLESRVSDPLPSATSISPTQVLSQLPMAPDPGETLFLAEQPPLPPAPLLPPSLANGSIVPTAKPAPTLIKQSQPKSASEKSQRSKKAKELKPKVKKLKYHQYIPPDQKQDKGAPAMDSSYAKILQQQQLFLQLQILNQQQQQQQQQHYNYQAILPAPPKPSAETPGSSAPTPSRSLSTSSSPSSGTPGPSGLARQSSTALAAKPGALPANLDDMKVAELKQELKLRSLPVSGTKTELIERLRAYQDQVSPAPGAPKAPATTSVLSKAGEVVVAFPAALLSTGSALVTAGLAPAEMVVATVTSNGMVKFGSTGSTPPVSPTPSERSLLSTGDENSTPGDAFGEMVTSPLTQLTLQASPLQIVKEEGARAASCCLSPGARAELEGLDKDQMLQEKDKQIEELTRMLQQKQQLVELLRLQLEQQKRAQQPAPASSPVKRESGFSSCQLSCQPQGSAHAFGSGLVVPTTNHGDTQAPAPESPPVVVKQEAGPPEPDLAPSSQLLLGSQGTSFLKRVSPPTLVTDSTGTHLILTVTNKSADGPGLPAGSPQQPLSQPGSPAPGPPAQMDLEHPPQPPFATPTSLLKKEPPGYEETVTQQPKQQENGSSSQHMDDLFDILIQSGEISADFKEPPSLPGKEKSPPAAAAYGPPLTPQPSPLSELPQAAPPPGSPTLPGRLEDFLESSTGLPLLTSGHEGPEPLSLIDDLHSQMLSSSAILDHPPSPMDTSELHFAPEPSSGMGLDLAVGHLDSMDWLELSSGGPVLSLAPLSTAAPSLFSMDFLDGHDLQLHWDSCL

Variants of: B1
Settings: with acts_rabit ACTA1, P68135

Variant | effect of a mutation on the interaction
G114E;P115Q;L118A;I123A;L124A | disrupting interaction

Variants of: B1
Settings: with acts_rabit ACTA1, P68135
Remark: another data set of the same source

Variant | effect of a mutation on the interaction
L105A;I109A | disrupting interaction

Variants of: B1
Settings: with acts_rabit ACTA1, P68135
Remark: another data set of the same source

Variant | effect of a mutation on the interaction
L61A;I65A | disrupting interaction

Variants of: B1
Settings: with acts_rabit ACTA1, P68135
Remark: another data set of the same source

Variant | effect of a mutation on the interaction
R24A | disrupting interaction

Variants of: B1
Settings: with acts_rabit ACTA1, P68135
Remark: another data set of the same source

Variant | effect of a mutation on the interaction
G114E;P115R | increasing interaction

Variants of: B1
Settings: with acts_rabit ACTA1, P68135
Remark: another data set of the same source

Variant | effect of a mutation on the interaction
R112A | disrupting interaction

Variants of: B1
Settings: with acts_rabit ACTA1, P68135
Remark: another data set of the same source

Variant | effect of a mutation on the interaction
R68A | disrupting interaction

Variants of: B1
Settings: with acts_rabit ACTA1, P68135
Remark: another data set of the same source

Variant | effect of a mutation on the interaction
L118A;I123A;L124A | disrupting interaction

Variants of: B1
Settings: with acts_rabit ACTA1, P68135
Remark: another data set of the same source

Variant | effect of a mutation on the interaction
P69R | decreasing interaction

Variants of: B1
Settings: with acts_rabit ACTA1, P68135
Remark: another data set of the same source

Variant | effect of a mutation on the interaction
L74A;I79A;L80A | disrupting interaction

Variants of: B1
Settings: with acts_rabit ACTA1, P68135
Remark: another data set of the same source

Variant | effect of a mutation on the interaction
R24D;R25D | disrupting interaction
